Target: Human GPA33 (Novoprotein), recombinant protein immobilized on CM5 chips (human) (UniProt Q99795)
Experiment: SPR (Biacore T100), GPA33 recombinant protein immobilized on CM5 chip, antibody flowed over

Sequence of Human GPA33 (Novoprotein), recombinant protein immobilized on CM5 chips (human) (Q99795 22-235 limits assumed): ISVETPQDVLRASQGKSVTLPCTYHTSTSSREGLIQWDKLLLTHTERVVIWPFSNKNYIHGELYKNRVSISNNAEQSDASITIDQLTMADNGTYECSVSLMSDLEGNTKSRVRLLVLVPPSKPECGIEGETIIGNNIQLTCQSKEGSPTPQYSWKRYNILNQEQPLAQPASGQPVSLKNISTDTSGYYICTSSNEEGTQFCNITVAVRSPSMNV

Question: How did the Kd turn out when “hA33-mC825 BsAb (original humanized hA33 in hA33-mC825 bispecific format, Cheal et al. 2016) (bispecific antibody)” was run?
Answer: 1.59 nM

Question: What about the koff of the same substance?
Answer: 0.00294 s⁻¹

Question: What about the kon of the same substance?
Answer: 1.85e+06 M⁻¹ s⁻¹

Reference: patent US20200291112A1
